Results on 16 molecules are retold here after patent US20220033515A1 (Genentech, published 2022).

Values joined by “and” are separate entries in the source; they are usually repeats but may differ in a detail not shown here. Equal entries are not always repeated. Where two headings read alike, the source gives them in different places. Some results are limits rather than exact numbers.

Experiment [1] deals with T1, HER2 extracellular domain (Her2-ECD) (human, UniProt P04626 23-652).
T1 construct: extracellular domain; also called hHER2 extracellular domain (ECD)
The experiment can be described thus: single-spot competitive phage ELISA. Background: ELISA stands for enzyme-linked immunosorbent assay.

Experiment [2] concerns the target T2, human vascular endothelial growth factor (hVEGF) (human, UniProt P15692-4 27-191).
T2 construct: also called hVEGF-A; human vascular endothelial growth factor A
The experiment can be described thus: competitive phage ELISA.

The target of experiment [3] is T3, hVEGF109 (human, UniProt P15692 214-315).
T3 construct: range 8-109; also called VEGF (8-109)
T3 sequence (looked up): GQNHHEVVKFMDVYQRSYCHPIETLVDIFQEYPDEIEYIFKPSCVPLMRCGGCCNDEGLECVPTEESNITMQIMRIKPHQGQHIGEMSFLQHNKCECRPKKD
As to the kind of experiment: Biacore SPR. On the technique in general: In SPR one partner is held on a chip, and binding of the other changes the refractive index at the surface.

Experiment [4] concerns the target T2, human vascular endothelial growth …. The experiment can be described thus: competitive phage ELISA. The source holds these as a separate data set.
The target in experiment [5] is T3, hVEGF109. As to the kind of experiment: single-spot competitive phage ELISA.
Experiment [6] concerns the target T4, human death receptor 5 (hDR5) (human, UniProt O14763 56-210).
T4 construct: also called DR5 long; hDR5-1f
As to the kind of experiment: competitive phage ELISA.

In the next experiment the target is T5, hVEGF165 (human, UniProt P15692-4 27-191).
T5 construct: also called human VEGF165
As to the kind of experiment: ELISA on immobilised target.

Experiment [7] addresses T3, hVEGF109. As to the kind of experiment: ELISA on immobilised target.
The target of a further experiment is T6, murine VEGF (mVEGF) (murine, UniProt Q00731-2 27-190).
T6 sequence (looked up): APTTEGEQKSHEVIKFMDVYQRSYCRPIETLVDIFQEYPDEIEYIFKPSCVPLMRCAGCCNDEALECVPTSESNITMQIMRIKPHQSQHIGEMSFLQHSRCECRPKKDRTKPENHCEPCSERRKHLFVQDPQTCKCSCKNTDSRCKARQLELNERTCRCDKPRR
As to the kind of experiment: ELISA on immobilised target.

In experiment [8] the target is T1, HER2 extracellular domain (Her2-ECD). As to the kind of experiment: ELISA on immobilised protein.
Experiment [9] has as its target bovine serum albumin (BSA) (bovine, UniProt P02769 25-607). The experiment can be described thus: ELISA on immobilised protein.
The target of the next experiment is T7, hVEGF-C (human, UniProt P49767 103-227).
T7 sequence (looked up): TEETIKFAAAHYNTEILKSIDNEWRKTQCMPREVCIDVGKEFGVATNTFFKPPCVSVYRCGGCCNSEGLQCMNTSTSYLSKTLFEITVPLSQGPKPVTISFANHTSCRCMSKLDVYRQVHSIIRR
The experiment can be described thus: ELISA on immobilised protein.

Another experiment deals with T8, hVEGF-D (human, UniProt O43915 93-201).
T8 sequence (looked up): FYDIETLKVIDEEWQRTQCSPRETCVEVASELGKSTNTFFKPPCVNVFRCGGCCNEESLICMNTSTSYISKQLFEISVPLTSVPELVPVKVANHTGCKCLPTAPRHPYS
As to the kind of experiment: ELISA on immobilised protein.

The target of experiment [10] is T2, human vascular endothelial growth …. As to the kind of experiment: ELISA on immobilised protein.
In experiment [11] the target is T9, epidermal growth factor receptor extracellular domain (hEGFR) (human, UniProt P00533 25-645).
T9 construct: extracellular domain
The experiment can be described thus: ELISA on immobilised protein.

Experiment [12] concerns the target T4, human death receptor 5 (hDR5). The experiment can be described thus: equilibrium KD; method and format (Fab or IgG) not given.
Experiment [13] addresses T1, HER2 extracellular domain (Her2-ECD). As to the kind of experiment: competitive phage ELISA.
For experiment [14] the target is unchanged. The experiment can be described thus: equilibrium KD; method and format (Fab or IgG) not given; HER2, second number of the cell.
For experiment [15] the target is unchanged. The experiment can be described thus: single-spot competitive phage ELISA. This is another data set of the same source.

B1: 3-4 (scFv, V domains shown, not shown: large carriers; small tags and cut ends)
VH: not shown
VL: DIQMTQSPSSLSASVGDRVTITCRASQEVYSYVAWYQQKPGKAPKLLIYPASSLYSGVPSRFSGSGSGTDFTLTISSLQPEDFATYYCQQGFWIGPPTFGQGTKVEIK
notes: also called c3-4
For B1, in experiment [1], the OD450 without competitor was 0.05. In addition, in experiment [2], the IC50 (commonly the concentration needed to halve the response being measured) was determined as 32 nM.

B2: 3-7 (antibody, V domains shown)
VH: not shown
VL: DIQMTQSPSSLSASVGDRVTITCRASQYIWRYVAWYQQKPGKAPKLLIYWGSSLYSGVPSRFSGSGSGTDFTLTISSLQPEDFATYYCQQGLWYSPPTFGQGTKVEIK
notes: also called 3-7 hIgG; 3-7 anti-hVEGF
Regarding B2, in experiment [2], the IC50 amounted to 16 nM. Further, in the experiment with hVEGF109 [3], the Kd (in general, the concentration at which binding is half-saturated) is 3 nM and 7 nM; the koff (commonly a measure of how fast the partners let go of each other) is 0.0025 s⁻¹ and 0.0042 s⁻¹; the on-rate constant (kon) – broadly, the rate constant with which the complex forms – is 800000 M⁻¹ s⁻¹ and 580000 M⁻¹ s⁻¹.

B3: H7 (scFv, V domains shown)
VH: not shown
VL: DIQMTQSPSSLSASVGDRVTITCRASQNVWDWVAWYQQKPGKAPKLLIYPASSLYSGVPSRFSGSGSGTDFTLTISSLQPEDFATYYCQQGWYIAPPTFGQGTKVEIK
notes: copies: 1 + 1
In experiment [4], B3 yielded an IC50 of 60 nM.

B4: H10 (scFv, V domains shown)
VH: not shown
VL: DIQMTQSPSSLSASVGDRVTITCRASQDVFTSVAWYQQKPGKAPKLLIYDASYLYSGVPSRFSGSGSGTDFTLTISSLQPEDFATYYCQQRYIWAPPTFGQGTKVEIK
Molecule B4 yielded an IC50 in experiment [4] of 170 nM. The molecule also displayed an OD450 without competitor in experiment [1] of 0.04. Further, in the experiment with hVEGF109 [5], the “% signal, SSC +/- 50 or 100nM VEGF” value stood at 49% and the OD450 without competitor was 2.08.

B5: 4-2 (scFv, V domains shown)
VH: not shown
VL: DIQMTQSPSSLSASVGDRVTITCRASQRINSHTVAWYQQKPGKAPKLLIYWGSHLYSGVPSRFSGSGSGTDFTLTISSLQPEDFATYYCQQYSNRTPPTFGQGTKVEIK
Take B5: the IC50 in experiment [6] is over 1000 nM.

B6: 4-5 IgG (antibody, V domains shown)
VH: not shown
VL: DIQMTQSPSSLSASVGDRVTITCRASQNVGRPVAWYQQKPGKAPKLLIYGGSSLYSGVPSRFSGSGSGTDFTLTISSLQPEDFATYYCQQYGSFGTPPTFGQGTKVEIKR
notes: not shown: rest of the human IgG heavy chain constant region
Take B6: the binding result is reported as “no binding (tested: 100 nM (text))” with hVEGF165; “no binding (tested: 100 nM (text))” with hVEGF109 [7]; “no binding (tested: 100 nM (text))” in the experiment with murine VEGF (mVEGF); “no binding (tested: 100 or 500 nM (text))” in experiment [8]; “no binding (tested: 100 or 500 nM (text))” in [9]; “no binding (tested: 100 or 500 nM (text))” with hVEGF-C. The binding result (in the experiment with hVEGF-D; in experiment [10]; in experiment [11]) was “no binding (tested: 100 or 500 nM (text))” in each case.

B7: 4-5 (antibody, V domains shown)
VH: not shown
VL: DIQMTQSPSSLSASVGDRVTITCRASQNVGRPVAWYQQKPGKAPKLLIYGGSSLYSGVPSRFSGSGSGTDFTLTISSLQPEDFATYYCQQYGSFGTPPTFGQGTKVEIKR
As to B7, binding in experiment [12] was put at a Kd of 150 nM.

B8: bD1 (antibody, V domains shown)
VH: not shown
VL: DIQMTQSPSSLSASVGDRVTITCRASQNVSKHVAWYQQKPGKAPKLLIYWGSYLYSGVPSRFSGSGSGTDFTLTISSLQPEDFATYYCQQSYSGPPTFGQGTKVEIKR
On to B8, for which the Kd in [12] worked out at 14000 nM; in experiment [14], 200 nM. In experiment [13], this molecule registered an IC50 of 30 nM.

B9: H8 (scFv, V domains shown)
VH: not shown
VL: DIQMTQSPSSLSASVGDRVTITCRASQEIFPYYVAWYQQKPGKAPKLLIYLGSSLYSGVPSRFSGSGSGTDFTLTISSLQPEDFATYYCQQGWDGPPTFGQGTKVEIK
Molecule B9 displayed an IC50 in experiment [4] of 226 nM. In experiment [1], this molecule gave an OD450 without competitor of 0.09. In the experiment with hVEGF109 [5], the “% signal, SSC +/- 50 or 100nM VEGF” value came to 71.2% and the OD450 without competitor was 2.58.

B10: H11 (scFv, V domains shown)
VH: not shown
VL: DIQMTQSPSSLSASVGDRVTITCRASQDIMLGSVAWYQQKPGKAPKLLIYWGSFLYSGVPSRFSGSGSGTDFTLTISSLQPEDFATYYCQQHYTTPPTFGQGTKVEIK
On to B10, for which the OD450 without competitor in experiment [15] came out at 2.79.

B11: bD2 (antibody, V domains shown)
VH: not shown
VL: DIQMTQSPSSLSASVGDRVTITCRASQNIRNGGGLAWYQQKPGKAPKLLIYSASFLYSGVPSRFSGSGSGTDFTLTISSLQPEDFATYYCQQHYTTPPTFGQGTKVEIKR
As for B11, the Kd in experiment [12] amounted to 67000 nM; in [14] it was 100 nM. This molecule also registered an IC50 in experiment [13] of 17 nM.

B12: bD2 IgG (antibody, V domains shown)
VH: not shown
VL: DIQMTQSPSSLSASVGDRVTITCRASQNIRNGGGLAWYQQKPGKAPKLLIYSASFLYSGVPSRFSGSGSGTDFTLTISSLQPEDFATYYCQQHYTTPPTFGQGTKVEIKR
notes: as for B6
Turning to B12, the binding result with hVEGF165 was “no binding (tested: 100 nM (text))”; with hVEGF109 [7] it was “no binding (tested: 100 nM (text))”; in the experiment with murine VEGF (mVEGF), “no binding (tested: 100 nM (text))”; in [9], “no binding (tested: 100 or 500 nM (text))”; with hVEGF-C, “no binding (tested: 100 or 500 nM (text))”; with hVEGF-D, “no binding (tested: 100 or 500 nM (text))”. Moreover, the binding result in experiment [10] and in [11] was “no binding (tested: 100 or 500 nM (text))” each time.

B13: 4-4 (scFv, V domains shown)
VH: not shown
VL: DIQMTQSPSSLSASVGDRVTITCRASQVVSMTVAWYQQKPGKAPKLLIYGASSLYSGVPSRFSGSGSGTDFTLTISSLQPEDFATYYCQQYGSYSAPPTFGQGTKVEIK
Take B13: the half-inhibitory concentration (IC50) in [6] was over 1000 nM.

B14: 4-6 (scFv, V domains shown)
VH: not shown
VL: DIQMTQSPSSLSASVGDRVTITCRASQSVSSAVAWYQQKPGKAPKLLIYSASSLYSGVPSRFSGSRSGTDFTLTISSLQPEDFATYYCQQYSSSPPTFGQGTKVEIK
Regarding B14, the 50% inhibitory concentration (IC50) in experiment [6] came to 16 nM.

B15: 4-1 IgG (antibody, V domains shown)
VH: not shown
VL: DIQMTQSPSSLSASVGDRVTITCRASQDIWNRRALAWYQQKPGKAPKLLIYEGSSLYSGVPSRFSGSGSGTDFTLTISSLQPEDFATYYCQQGGSYSSPPTFGQGTKVEIKR
notes: as for B6
With B15, the binding result with hVEGF165 is “no binding (tested: 100 nM (text))”; in the experiment with hVEGF109 [7], “no binding (tested: 100 nM (text))”; with murine VEGF (mVEGF), “no binding (tested: 100 nM (text))”; in experiment [8], “no binding (tested: 100 or 500 nM (text))”; in [9], “no binding (tested: 100 or 500 nM (text))”; with hVEGF-C, “no binding (tested: 100 or 500 nM (text))”. In addition, the binding result (in the experiment with hVEGF-D; in experiment [10]; in experiment [11]) was “no binding (tested: 100 or 500 nM (text))” throughout.

B16: 4-1 (antibody, V domains shown)
VH: not shown
VL: DIQMTQSPSSLSASVGDRVTITCRASQDIWNRRALAWYQQKPGKAPKLLIYEGSSLYSGVPSRFSGSGSGTDFTLTISSLQPEDFATYYCQQGGSYSSPPTFGQGTKVEIKR
notes: also called 4-1 anti-hDR5
Consider B16, for which the Kd in [12] was determined as 120 nM.
